Biological target: the molecule itself
Test: crystal structure; OprN-wt crystals and OprN-Xe crystals (OprN-wt crystals under 2 MPa xenon), space group I4, T = 100 K; grown at 18°C in 100 mM sodium acetate pH 5.4, 0.8–1.1 M sodium formate, 9–11% PEG 4000; protein in 0.9% β-OG

B1: OprN, the outer membrane channel of the MexEF efflux pump from Pseudomonas aeruginosa (natural protein)
chain: CTVGPDYRTPDTAAAKIDATASKPYDRSRFESLWWKQFDDPTLNQLVEQSLSGNRDLRVAFARLRAARALRDDVANDRFPVVTSRASADIGKGQQPGVTEDRVNSERYDLGLDSAWELDLFGRIRRQLESSDALSEAAEADLQQLQVSLIAELVDAYGQLRGAQLREKIALSNLENQKESRQLTEQLRDAGVGAELDVLRADARLAATAASVPQLQAEAERARHRIATLLGQRPEELTVDLSPRDLPAITKALPIGDPGELLRRRPDIRAAERRLAASTADVGVATADLFPRVSLSGFLGFTAGRGSQIGSSAARAWSVGPSISWAAFDLGSVRARLRGAKADADAALASYEQQVLLALEESANAFSDYGKRQERLVSLVRQSEASRAAAQQAAIRYREGTTDFLVLLDAEREQLSAEDAQAQAEVELYRGIVAIYRSLGGGWQPSA
modifications: palmitoylation at the N-terminus Cys residue (dual acylation observed at the same cysteine)
notes: OprN, outer membrane factor of the MexEF-OprN efflux pump, Pseudomonas aeruginosa; the oprN gene was cloned; the chain in the crystal begins at the acylated Cys; 1341 amino acids built in the trimer; Homotrimer in the crystal (chains A, B, C); also called OprN-wt; OprN-Xe; source: C43-ΔacrB strain, pBAD-33, purified from the outer membrane (DDM, β-OG; Ni-NTA, Superose 6 SEC); not shown: His6, …
  stoichiometry N: 3
